The values below come from the Human Domainome abundance scans (Beltran et al. 2025).

± gives the uncertainty stated by the source.

A short description of the series: abundance fitness (aPCA) (normalised: wild type 0, dead -1); higher = more abundant; growth selection in yeast, the domain comes from the species named. Particulars: Homo sapiens.
For the substance “Lipoamide acyltransferase component of branched-chain alpha-keto acid dehydrogenase complex, mitochondrial V191A, P11182”, the abundance fitness was -0.52 ± 0.058.

Consider “Lipoamide acyltransferase component of branched-chain alpha-keto acid dehydrogenase complex, mitochondrial V191C, P11182”, for which the abundance fitness was -0.267 ± 0.053.

Take “Lipoamide acyltransferase component of branched-chain alpha-keto acid dehydrogenase complex, mitochondrial V191D, P11182”: the abundance fitness is -0.522 ± 0.092.

“Lipoamide acyltransferase component of branched-chain alpha-keto acid dehydrogenase complex, mitochondrial V191E, P11182”: the abundance fitness was -0.562 ± 0.043.

Turning to “Lipoamide acyltransferase component of branched-chain alpha-keto acid dehydrogenase complex, mitochondrial V191F, P11182”, the abundance fitness was -0.456 ± 0.054.

In the case of “Lipoamide acyltransferase component of branched-chain alpha-keto acid dehydrogenase complex, mitochondrial V191H, P11182”, the abundance fitness was -0.619 ± 0.12.

For “Lipoamide acyltransferase component of branched-chain alpha-keto acid dehydrogenase complex, mitochondrial V191K, P11182”, the abundance fitness was -0.653 ± 0.045.

As to “Lipoamide acyltransferase component of branched-chain alpha-keto acid dehydrogenase complex, mitochondrial V191L, P11182”, the abundance fitness is -0.117 ± 0.047.

As for “Lipoamide acyltransferase component of branched-chain alpha-keto acid dehydrogenase complex, mitochondrial V191M, P11182”, the abundance fitness is -0.075 ± 0.051.

For “Lipoamide acyltransferase component of branched-chain alpha-keto acid dehydrogenase complex, mitochondrial V191N, P11182”, the abundance fitness was -0.699 ± 0.23.

Consider “Lipoamide acyltransferase component of branched-chain alpha-keto acid dehydrogenase complex, mitochondrial V191P, P11182”, for which the abundance fitness is -0.482 ± 0.044.

Consider “Lipoamide acyltransferase component of branched-chain alpha-keto acid dehydrogenase complex, mitochondrial V191Q, P11182”, for which the abundance fitness is -0.632 ± 0.061.

With “Lipoamide acyltransferase component of branched-chain alpha-keto acid dehydrogenase complex, mitochondrial V191R, P11182”, the abundance fitness was -0.756 ± 0.045.

Consider “Lipoamide acyltransferase component of branched-chain alpha-keto acid dehydrogenase complex, mitochondrial V191S, P11182”, for which the abundance fitness is -0.593 ± 0.054.

“Lipoamide acyltransferase component of branched-chain alpha-keto acid dehydrogenase complex, mitochondrial V191T, P11182”: the abundance fitness is -0.696 ± 0.079.

Regarding “Lipoamide acyltransferase component of branched-chain alpha-keto acid dehydrogenase complex, mitochondrial V191W, P11182”, the abundance fitness is -0.899 ± 0.064.

For the substance “Lipoamide acyltransferase component of branched-chain alpha-keto acid dehydrogenase complex, mitochondrial V191Y, P11182”, the abundance fitness is -0.772 ± 0.067.

Take “Lipoamide acyltransferase component of branched-chain alpha-keto acid dehydrogenase complex, mitochondrial V192A, P11182”: the abundance fitness was -0.009 ± 0.045.

“Lipoamide acyltransferase component of branched-chain alpha-keto acid dehydrogenase complex, mitochondrial V192C, P11182”: the abundance fitness is -0.017 ± 0.055.

Consider “Lipoamide acyltransferase component of branched-chain alpha-keto acid dehydrogenase complex, mitochondrial V192D, P11182”, for which the abundance fitness is -0.159 ± 0.12.

Consider “Lipoamide acyltransferase component of branched-chain alpha-keto acid dehydrogenase complex, mitochondrial V192E, P11182”, for which the abundance fitness is 0.023 ± 0.045.

Regarding “Lipoamide acyltransferase component of branched-chain alpha-keto acid dehydrogenase complex, mitochondrial V192F, P11182”, the abundance fitness was -0.31 ± 0.21.

In the case of “Lipoamide acyltransferase component of branched-chain alpha-keto acid dehydrogenase complex, mitochondrial V192I, P11182”, the abundance fitness was -0.041 ± 0.086.

In turn, “Lipoamide acyltransferase component of branched-chain alpha-keto acid dehydrogenase complex, mitochondrial V192K, P11182” showed an abundance fitness of 0.062 ± 0.046.

As for “Lipoamide acyltransferase component of branched-chain alpha-keto acid dehydrogenase complex, mitochondrial V192L, P11182”, the abundance fitness was -0.068 ± 0.044.

As to “Lipoamide acyltransferase component of branched-chain alpha-keto acid dehydrogenase complex, mitochondrial V192M, P11182”, the abundance fitness was -0.066 ± 0.1.

For “Lipoamide acyltransferase component of branched-chain alpha-keto acid dehydrogenase complex, mitochondrial V192N, P11182”, the abundance fitness was -0.073 ± 0.062.

Consider “Lipoamide acyltransferase component of branched-chain alpha-keto acid dehydrogenase complex, mitochondrial V192P, P11182”, for which the abundance fitness came to 0.011 ± 0.05.

Turning to “Lipoamide acyltransferase component of branched-chain alpha-keto acid dehydrogenase complex, mitochondrial V192Q, P11182”, the abundance fitness is -0.023 ± 0.046.

As to “Lipoamide acyltransferase component of branched-chain alpha-keto acid dehydrogenase complex, mitochondrial V192R, P11182”, the abundance fitness was -0.027 ± 0.038.

Take “Lipoamide acyltransferase component of branched-chain alpha-keto acid dehydrogenase complex, mitochondrial V192S, P11182”: the abundance fitness is -0.041 ± 0.053.

The substance “Lipoamide acyltransferase component of branched-chain alpha-keto acid dehydrogenase complex, mitochondrial V192T, P11182” had an abundance fitness of 0.046 ± 0.052.

With “Lipoamide acyltransferase component of branched-chain alpha-keto acid dehydrogenase complex, mitochondrial V192Y, P11182”, the abundance fitness is -0.141 ± 0.079.
